Test results published in US20150045291A1 (YEDA RESEARCH AND DEVELOPMENT, published 2015).

Key:
Test in all cases: cell-based or functional assay
[1] = molecular target: T1, HIV-1 HXB2 envelope protein (ENV), gp41 transmembrane subunit (HIV-1 HXB2, UniProt P04578 33-856)
[2] = molecular target: T1, HIV-1 HXB2 envelope protein (ENV), gp41 …; remark: listed apart in the source
[3] = molecular target: HIV-1 LAI ENV (CXCR4 tropic) (HIV-1 LAI, UniProt P03377 33-861)
[4] = molecular target: HIV-1 AD8 ENV (CCR5 tropic) (HIV-1 AD8)

| Binder | IC50 (nM), antiviral activity in a fully infectious HIV-1 system [2] | further results |
| --- | --- | --- |
| LLQLTVWGIKQLQARILK (sphinganine on the side chain of the C-terminal Lys) [N17K-sphinganine] | 291 nM | IC50 value, viral infectivity [1]: 287 nM |
| LLQLTVWGIKQLQARIL (tocopherol (alpha-tocopherol succinate) on the N-terminus) [Tocopherol-N17] | > 4000 nM |  |
| YTSLIHSLIEESQNQQEKNK (sphinganine on the side chain of the C-terminal Lys) [DP19K-sphinganine] | 350 nM |  |
| ELQLTQWKIKQLLARILK [N17mut (e, g) K] | > 4000 nM |  |
| LLQLTVWGIKQLQARIL (palmitic acid (C16) on the N-terminus) [Palmitic acid-N17] | > 4000 nM |  |
| LLQLTVWGIKQLQARIL (cholesterol on the N-terminus) [Cholesterol-N17] | > 4000 nM |  |
| LLQLTVWGIKQLQARIL (sphingosine on the N-terminus) [Sphingosine-N17] | 208 nM |  |
| LLQLTVWGIKQLQARILK (sphinganine on the N-terminus) [Sphinganine-N17K] | 118 nM | inhibitory concentration at 50% infectivity (IC50) [1]: 116 nM |
| YTSLIHSLIEESQNQQEKNK [DP19K] | 2210 nM |  |
| LLQLTVWGIKQLQARIL [N17] | > 4000 nM |  |
| ELQLTQWKIKQLLARILK (sphinganine on the side chain of the C-terminal Lys) [N17mut (e, g) K-sphing] | 120 nM |  |
| ELQLTQWKIKQLLARILK (sphinganine on the N-terminus) [Sphing-N17mut (e, g) K] | 120 nM |  |
| LLQLTVWGIKQLQA (sphinganine on the N-terminus) [Sphing-N14] | 500 nM |  |
| LQARILAVERYLKDQQL (sphinganine on the N-terminus) [Sphinganine-ShN17] | 886 nM |  |
| LLQLTVWGIKQLQARILK [N17K] | > 4000 nM |  |
| LLQLTVWGIKQLQARIL (sphinganine (dihydrosphingosine) on the N-terminus) [Sphinganine-N17] | 121 nM | IC50, infection of TZM-bl cells by pseudotyped virus [3]: 312 nM; IC50, infection of TZM-bl cells by pseudotyped virus [4]: 403 nM |
| LLQLTVWGIKQLQA [N14] | > 4000 nM |  |
